The labels stand for the following.
T1: EsCas13d, nuclease-dead (Eubacterium siraeum, UniProt B0MS50, R295A;H300A;R849A;H854A)
T1 sequence: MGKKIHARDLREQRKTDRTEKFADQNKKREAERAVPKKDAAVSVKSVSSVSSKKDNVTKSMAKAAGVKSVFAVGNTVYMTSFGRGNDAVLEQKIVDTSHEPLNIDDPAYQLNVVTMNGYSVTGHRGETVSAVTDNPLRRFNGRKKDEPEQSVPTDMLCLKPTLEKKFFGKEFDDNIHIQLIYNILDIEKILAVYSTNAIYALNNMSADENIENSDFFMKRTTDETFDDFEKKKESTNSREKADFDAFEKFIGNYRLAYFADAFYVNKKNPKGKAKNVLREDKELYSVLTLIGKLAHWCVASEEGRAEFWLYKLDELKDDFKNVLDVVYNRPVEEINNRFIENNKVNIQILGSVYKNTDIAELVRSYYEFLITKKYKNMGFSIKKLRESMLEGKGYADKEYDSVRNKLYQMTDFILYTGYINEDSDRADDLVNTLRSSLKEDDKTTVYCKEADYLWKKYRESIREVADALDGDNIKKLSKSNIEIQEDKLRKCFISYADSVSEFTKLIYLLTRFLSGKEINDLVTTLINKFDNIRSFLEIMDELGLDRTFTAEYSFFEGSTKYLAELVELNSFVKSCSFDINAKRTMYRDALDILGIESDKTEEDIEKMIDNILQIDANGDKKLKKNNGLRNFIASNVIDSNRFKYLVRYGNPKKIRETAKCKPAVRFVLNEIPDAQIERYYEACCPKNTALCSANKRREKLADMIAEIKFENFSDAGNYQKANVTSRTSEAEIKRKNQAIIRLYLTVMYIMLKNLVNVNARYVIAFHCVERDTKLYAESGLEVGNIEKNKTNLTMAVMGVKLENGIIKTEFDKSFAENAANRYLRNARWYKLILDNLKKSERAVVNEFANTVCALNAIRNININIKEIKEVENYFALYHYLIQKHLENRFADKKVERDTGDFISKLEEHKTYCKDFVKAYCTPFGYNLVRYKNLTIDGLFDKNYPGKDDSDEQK

B1: target 1 MT 5'PFS GAA 3'PFS UGA (mixed)
RNA 1: CACCCGUGCAAAAAUGCAGGGGUCUAAAACUGAGCGGAUAACCUCUCUAUGG
RNA 2: GGGAAUGGAUCCACAUCUACGAAUUCGAACCAUAGAGAGGUUAUCCGCUCAUGAAGAUCGGAAGAGCACACGU
B2: target 1 MT 5'PFS GUG 3'PFS CUA (mixed)
RNA 1: B1 RNA 1
RNA 2: B1 RNA 2 with A28U, A29G, U52C, G53U
B3: target 1 MT 5'PFS CUC 3'PFS CGA (mixed)
RNA 1: B1 RNA 1
RNA 2: B1 RNA 2 with G27C, A28U, A29C, U52C
B4: target 1 G13C,G15U (mixed)
RNA 1: B1 RNA 1
RNA 2: B1 RNA 2 with A28U, G37U, G39C, U52C, G53C, A54G
B5: target 1 MT 5'PFS GCG 3'PFS UGC (mixed)
RNA 1: B1 RNA 1
RNA 2: B1 RNA 2 with A28C, A29G, A54C
B6: target 1 MT 5'PFS UCG 3'PFS UGU (mixed)
RNA 1: B1 RNA 1
RNA 2: B1 RNA 2 with G27U, A28C, A29G, A54U
B7: target 1 MT 5'PFS CUG 3'PFS UAC (mixed)
RNA 1: B1 RNA 1
RNA 2: B1 RNA 2 with G27C, A28U, A29G, G53A, A54C
B8: target 1 MT 5'PFS GUG 3'PFS CUC (mixed)
RNA 1: B1 RNA 1
RNA 2: B1 RNA 2 with A28U, A29G, U52C, G53U, A54C
B9: target 1 MT 5'PFS GAA 3'PFS UGC (mixed)
RNA 1: B1 RNA 1
RNA 2: B1 RNA 2 with A54C
B10: target 1 MT 5'PFS GCG 3'PFS UGA (mixed)
RNA 1: B1 RNA 1
RNA 2: B1 RNA 2 with A28C, A29G
B11: target 1 MT 5'PFS UAA 3'PFS CAG (mixed)
RNA 1: B1 RNA 1
RNA 2: B1 RNA 2 with G27U, U52C, G53A, A54G
B12: target 1 MT 5'PFS GAA 3'PFS AAC (mixed)
RNA 1: B1 RNA 1
RNA 2: B1 RNA 2 with U52A, G53A, A54C
B13: target 1 MT 5'PFS GGA 3'PFS AGU (mixed)
RNA 1: B1 RNA 1
RNA 2: B1 RNA 2 with A28G, U52A, A54U
B14: target 1 MT 5'PFS UCC 3'PFS UUG (mixed)
RNA 1: B1 RNA 1
RNA 2: B1 RNA 2 with G27U, A28C, A29C, G53U, A54G
B15: target 1 MT 5'PFS UAG 3'PFS CGU (mixed)
RNA 1: B1 RNA 1
RNA 2: B1 RNA 2 with G27U, A29G, U52C, A54U
B16: target 1 MT 5'PFS UAC 3'PFS UCU (mixed)
RNA 1: B1 RNA 1
RNA 2: B1 RNA 2 with G27U, A29C, G53C, A54U
B17: target 1 MT 5'PFS GAA 3'PFS AAU (mixed)
RNA 1: B1 RNA 1
RNA 2: B1 RNA 2 with U52A, G53A, A54U
B18: target 1 MT 5'PFS ACU 3'PFS AUA (mixed)
RNA 1: B1 RNA 1
RNA 2: B1 RNA 2 with G27A, A28C, A29U, U52A, G53U
B19: target 1 MT 5'PFS ACU 3'PFS AUC (mixed)
RNA 1: B1 RNA 1
RNA 2: B1 RNA 2 with G27A, A28C, A29U, U52A, G53U, A54C
B20: target 1 MT 5'PFS GGC 3'PFS UUA (mixed)
RNA 1: B1 RNA 1
RNA 2: B1 RNA 2 with A28G, A29C, G53U
B21: target 1 MT 5'PFS ACU 3'PFS AUU (mixed)
RNA 1: B1 RNA 1
RNA 2: B1 RNA 2 with G27A, A28C, A29U, U52A, G53U, A54U
B22: target 1 MT 5'PFS UCC 3'PFS UUU (mixed)
RNA 1: B1 RNA 1
RNA 2: B1 RNA 2 with G27U, A28C, A29C, G53U, A54U
B23: target 1 MT 5'PFS AGG 3'PFS UAU (mixed)
RNA 1: B1 RNA 1
RNA 2: B1 RNA 2 with G27A, A28G, A29G, G53A, A54U
B24: target 1 C4A,C7A (mixed)
RNA 1: B1 RNA 1
RNA 2: B1 RNA 2 with A28U, C45A, C48A, U52C, G53C, A54G
B25: target 1 MT 5'PFS GGA 3'PFS GGG (mixed)
RNA 1: B1 RNA 1
RNA 2: B1 RNA 2 with A28G, U52G, A54G
B26: target 1 MT 5'PFS ACG 3'PFS UAA (mixed)
RNA 1: B1 RNA 1
RNA 2: B1 RNA 2 with G27A, A28C, A29G, G53A
B27: target 1 MT 5'PFS UAG 3'PFS CGG (mixed)
RNA 1: B1 RNA 1
RNA 2: B1 RNA 2 with G27U, A29G, U52C, A54G
B28: target 1 MT 5'PFS GUG 3'PFS CUU (mixed)
RNA 1: B1 RNA 1
RNA 2: B1 RNA 2 with A28U, A29G, U52C, G53U, A54U
B29: target 1 C4A (mixed)
RNA 1: B1 RNA 1
RNA 2: B1 RNA 2 with A28U, C48A, U52C, G53C, A54G
B30: target 1 MT 5'PFS AAU 3'PFS AAC (mixed)
RNA 1: B1 RNA 1
RNA 2: B1 RNA 2 with G27A, A29U, U52A, G53A, A54C
B31: target 1 MT 5'PFS GGA 3'PFS AGC (mixed)
RNA 1: B1 RNA 1
RNA 2: B1 RNA 2 with A28G, U52A, A54C
B32: target 1 MT 5'PFS GGA 3'PFS GGU (mixed)
RNA 1: B1 RNA 1
RNA 2: B1 RNA 2 with A28G, U52G, A54U
B33: target 1 MT 5'PFS AGG 3'PFS UAG (mixed)
RNA 1: B1 RNA 1
RNA 2: B1 RNA 2 with G27A, A28G, A29G, G53A, A54G
B34: target 1 MT 5'PFS GGC 3'PFS UUC (mixed)
RNA 1: B1 RNA 1
RNA 2: B1 RNA 2 with A28G, A29C, G53U, A54C
B35: target 1 C21U,C22A (mixed)
RNA 1: B1 RNA 1
RNA 2: B1 RNA 2 with A28U, C30A, C31U, U52C, G53C, A54G
B36: target 1 MT 5'PFS AAU 3'PFS AAU (mixed)
RNA 1: B1 RNA 1
RNA 2: B1 RNA 2 with G27A, A29U, U52A, G53A, A54U
B37: target 1 MT 5'PFS AGG 3'PFS UAC (mixed)
RNA 1: B1 RNA 1
RNA 2: B1 RNA 2 with G27A, A28G, A29G, G53A, A54C
B38: target 1 MT 5'PFS UAG 3'PFS CGA (mixed)
RNA 1: B1 RNA 1
RNA 2: B1 RNA 2 with G27U, A29G, U52C

Numbering of substitutions follows the chain as printed. Numbers in names are those of the source.

The target in this data set is T1, EsCas13d, nuclease-dead. Briefly: crRNA (strand 1, pre-loaded); Mg2+; 40 mM Tris-HCl pH 7.5, 150 mM NaCl, 6 mM MgCl2, 1 mM DTT, 0.1% Tween-20, 0.2 mg/ml BSA; 25 C; 10 min per concentration, then washed. To be noted: tags: His6-TwinStrep-SUMO cleaved; N-terminal SNAP kept (SNAP-Surface 488); label: 3' end held by stalled T7 RNA polymerase.
Usually Kd stands for the free concentration of one partner at which half of the binding sites on the other are occupied at equilibrium, for simple one-to-one binding. Low values mean a tighter complex, high ones a looser complex. B1 displayed a Kd of 0.0305 ± 0.009 µM.

B2 returned a dissociation constant (Kd) of 0.0163 ± 0.002 µM.

Molecule B3 had a Kd of 0.08 ± 0.04 µM.

With B4, the Kd was 0.066 ± 0.018 µM.

B5 showed a Kd of 0.0225 ± 0.0065 µM.

As for B6, the affinity, expressed as Kd, was 0.057 ± 0.022 µM.

B7 displayed a Kd of 0.0041 ± 0.0007 µM.

On to B8, for which the dissociation constant Kd worked out at 0.0194 ± 0.00275 µM.

For B9, the Kd worked out at 0.0109 ± 0.00205 µM.

On to B10, for which binding was characterised by a dissociation constant (Kd) of 0.0208 ± 0.00775 µM.

Turning to B11, the Kd was found to be 0.053 ± 0.022 µM.

The molecule B12 came in with a Kd of around 0.047 µM.

B13 displayed a Kd of 0.022 ± 0.0037 µM.

Turning to B14, binding was characterised by a dissociation constant (Kd) of 0.0133 ± 0.00245 µM.

Turning to B15, the Kd came out at 0.0635 ± 0.028 µM.

B16 had a Kd of 0.0099 ± 0.0032 µM.

Turning to B17, the Kd was determined as 0.0405 ± 0.013 µM.

Turning to B18, the Kd is 0.067 ± 0.018 µM.

B19 came in with a Kd of around 0.05 µM.

B20: the affinity, expressed as Kd, was 0.0117 ± 0.00255 µM.

Consider B21, for which the Kd stood at 0.053 ± 0.026 µM.

On to B22, for which binding was characterised by a dissociation constant (Kd) of 0.011 ± 0.004 µM.

B23 displayed a Kd of 0.035 ± 0.0165 µM.

As for B24, the affinity, expressed as Kd, was 0.0066 ± 0.0004 µM.

For B25, the Kd amounted to 0.054 ± 0.018 µM.

As to B26, the Kd was 0.0135 ± 0.005 µM.

Molecule B27 gave a Kd of 0.055 ± 0.01 µM.

As for B28, binding was characterised by a dissociation constant (Kd) of 0.0102 ± 0.0009 µM.

B29 came in with a Kd of 0.0038 ± 0.0004 µM.

On to B30, for which binding was put at a Kd of 0.0475 ± 0.0185 µM.

Take B31: binding was characterised by a dissociation constant (Kd) of 0.0156 ± 0.0029 µM.

In turn, B32 displayed a Kd of 0.045 ± 0.018 µM.

B33 gave a Kd of 0.023 ± 0.0065 µM.

In turn, B34 displayed a Kd of 0.0129 ± 0.0024 µM.

For the molecule B35, the Kd was 0.0289 ± 0.002 µM.

B36 had a Kd of 0.038 ± 0.017 µM.

In the case of B37, the affinity, expressed as Kd, was 0.032 ± 0.013 µM.

B38 had a Kd of 0.027 ± 0.006 µM.

These data come from article PMC10786891, “Massively parallel profiling of RNA-targeting CRISPR-Cas13d”.
